Data: US10087225B2, “Formulation of MK2 inhibitor peptides” (MOERAE MATRIX, INC., priority 2015, dated 2018)

Key:
Experiment in all cases: Kinase Profiling Assay
Type in all cases: biochemical
cKit(D816H)(h) = cKit(D816H)(h) (Homo sapiens, UniProt P10721, D816H)
cKit(V654A)(h) = cKit(V654A)(h) (Homo sapiens, UniProt P10721, V654A)
Flt4(h) = Flt4(h) (Homo sapiens, UniProt P35916)
BrSK2(h) = target: T1, BrSK2(h) (Homo sapiens, UniProt Q8IWQ3)
T1 sequence (Q8IWQ3 1-736): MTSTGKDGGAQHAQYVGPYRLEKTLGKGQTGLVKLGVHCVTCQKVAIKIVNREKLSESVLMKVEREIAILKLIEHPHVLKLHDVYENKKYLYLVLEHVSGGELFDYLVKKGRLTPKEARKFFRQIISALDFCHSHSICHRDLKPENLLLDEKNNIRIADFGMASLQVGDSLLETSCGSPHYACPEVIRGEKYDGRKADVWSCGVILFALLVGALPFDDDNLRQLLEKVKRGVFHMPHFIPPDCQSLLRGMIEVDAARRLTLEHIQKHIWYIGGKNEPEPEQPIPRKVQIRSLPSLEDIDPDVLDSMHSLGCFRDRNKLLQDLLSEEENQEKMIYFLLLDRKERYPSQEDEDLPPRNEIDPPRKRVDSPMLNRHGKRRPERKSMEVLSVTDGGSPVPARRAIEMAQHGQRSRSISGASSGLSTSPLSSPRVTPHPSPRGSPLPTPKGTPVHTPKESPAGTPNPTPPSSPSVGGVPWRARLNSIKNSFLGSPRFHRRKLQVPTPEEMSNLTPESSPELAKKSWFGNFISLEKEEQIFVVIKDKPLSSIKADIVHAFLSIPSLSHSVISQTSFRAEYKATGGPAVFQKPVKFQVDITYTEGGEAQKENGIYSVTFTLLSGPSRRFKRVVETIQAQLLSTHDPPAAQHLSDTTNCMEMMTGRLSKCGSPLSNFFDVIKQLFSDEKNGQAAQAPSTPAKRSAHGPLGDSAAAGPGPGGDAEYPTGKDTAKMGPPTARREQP

Pim-1(h) = Pim-1(h) (Homo sapiens, UniProt P11309); conditions: 100 μM
Sequence of Pim-1(h) (P11309 whole entry): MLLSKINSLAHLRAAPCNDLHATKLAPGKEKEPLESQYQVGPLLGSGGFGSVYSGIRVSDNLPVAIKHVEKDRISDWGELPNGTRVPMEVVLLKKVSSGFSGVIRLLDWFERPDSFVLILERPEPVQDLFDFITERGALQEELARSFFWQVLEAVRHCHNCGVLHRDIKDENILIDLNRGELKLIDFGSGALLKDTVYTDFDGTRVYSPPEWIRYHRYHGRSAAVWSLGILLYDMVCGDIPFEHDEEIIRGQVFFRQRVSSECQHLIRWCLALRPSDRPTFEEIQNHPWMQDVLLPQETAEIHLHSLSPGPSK

CaMKI(h) = CaMKI(h) (Homo sapiens, UniProt Q14012); conditions: 100 μM
Sequence of CaMKI(h) (Q14012 whole entry): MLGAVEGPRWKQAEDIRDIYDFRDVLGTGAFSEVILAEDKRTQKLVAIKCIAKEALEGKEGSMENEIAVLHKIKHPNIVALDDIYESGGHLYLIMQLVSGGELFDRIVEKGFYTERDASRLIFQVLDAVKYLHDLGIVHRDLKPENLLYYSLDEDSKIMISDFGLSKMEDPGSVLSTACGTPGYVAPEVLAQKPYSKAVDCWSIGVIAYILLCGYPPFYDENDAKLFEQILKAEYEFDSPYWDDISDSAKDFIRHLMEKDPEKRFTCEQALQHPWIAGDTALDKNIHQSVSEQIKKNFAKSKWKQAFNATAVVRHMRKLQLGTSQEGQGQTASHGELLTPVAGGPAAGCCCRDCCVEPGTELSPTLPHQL

Aurora-B(h) = Aurora-B(h) (Homo sapiens, UniProt Q96GD4); conditions: 100 μM
Sequence of Aurora-B(h) (Q96GD4 whole entry): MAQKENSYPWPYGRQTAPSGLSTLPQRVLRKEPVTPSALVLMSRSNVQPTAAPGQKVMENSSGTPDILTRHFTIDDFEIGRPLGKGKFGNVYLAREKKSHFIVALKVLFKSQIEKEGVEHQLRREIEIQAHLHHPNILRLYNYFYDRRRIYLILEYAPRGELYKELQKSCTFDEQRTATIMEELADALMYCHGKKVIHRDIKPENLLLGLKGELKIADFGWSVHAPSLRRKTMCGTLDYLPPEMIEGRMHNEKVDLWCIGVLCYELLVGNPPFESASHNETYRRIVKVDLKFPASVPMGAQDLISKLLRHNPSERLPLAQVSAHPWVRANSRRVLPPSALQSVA

TBK1(h) = target: T2, TBK1(h) (Homo sapiens, UniProt Q9UHD2); conditions: 100 μM
T2 sequence (Q9UHD2 1-729): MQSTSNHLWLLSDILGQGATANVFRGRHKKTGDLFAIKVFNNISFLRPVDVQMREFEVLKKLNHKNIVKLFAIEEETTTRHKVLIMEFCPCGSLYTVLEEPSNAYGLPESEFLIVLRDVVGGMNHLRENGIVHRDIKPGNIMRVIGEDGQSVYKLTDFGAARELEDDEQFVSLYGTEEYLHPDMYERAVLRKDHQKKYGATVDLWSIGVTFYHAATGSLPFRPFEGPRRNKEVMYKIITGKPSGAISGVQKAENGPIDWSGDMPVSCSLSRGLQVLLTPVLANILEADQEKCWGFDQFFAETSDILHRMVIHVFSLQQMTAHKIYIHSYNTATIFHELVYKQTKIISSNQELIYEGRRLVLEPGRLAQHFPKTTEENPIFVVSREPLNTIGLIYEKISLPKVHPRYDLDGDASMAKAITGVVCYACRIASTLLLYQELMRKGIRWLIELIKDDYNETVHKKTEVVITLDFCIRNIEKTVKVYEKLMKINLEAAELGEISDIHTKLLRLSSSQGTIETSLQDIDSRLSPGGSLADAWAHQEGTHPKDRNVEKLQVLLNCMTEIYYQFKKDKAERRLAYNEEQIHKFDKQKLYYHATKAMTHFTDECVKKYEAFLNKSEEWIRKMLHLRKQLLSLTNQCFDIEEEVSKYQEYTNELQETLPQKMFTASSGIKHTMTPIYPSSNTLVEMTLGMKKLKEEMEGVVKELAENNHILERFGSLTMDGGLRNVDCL

cKit(D816V)(h) = cKit(D816V)(h) (Homo sapiens, UniProt P10721, D816V); conditions: 100 μM
PKCϵ(h) = target: T3, PKCϵ(h) (Homo sapiens, UniProt Q02156); conditions: 100 μM
T3 sequence (Q02156 1-737): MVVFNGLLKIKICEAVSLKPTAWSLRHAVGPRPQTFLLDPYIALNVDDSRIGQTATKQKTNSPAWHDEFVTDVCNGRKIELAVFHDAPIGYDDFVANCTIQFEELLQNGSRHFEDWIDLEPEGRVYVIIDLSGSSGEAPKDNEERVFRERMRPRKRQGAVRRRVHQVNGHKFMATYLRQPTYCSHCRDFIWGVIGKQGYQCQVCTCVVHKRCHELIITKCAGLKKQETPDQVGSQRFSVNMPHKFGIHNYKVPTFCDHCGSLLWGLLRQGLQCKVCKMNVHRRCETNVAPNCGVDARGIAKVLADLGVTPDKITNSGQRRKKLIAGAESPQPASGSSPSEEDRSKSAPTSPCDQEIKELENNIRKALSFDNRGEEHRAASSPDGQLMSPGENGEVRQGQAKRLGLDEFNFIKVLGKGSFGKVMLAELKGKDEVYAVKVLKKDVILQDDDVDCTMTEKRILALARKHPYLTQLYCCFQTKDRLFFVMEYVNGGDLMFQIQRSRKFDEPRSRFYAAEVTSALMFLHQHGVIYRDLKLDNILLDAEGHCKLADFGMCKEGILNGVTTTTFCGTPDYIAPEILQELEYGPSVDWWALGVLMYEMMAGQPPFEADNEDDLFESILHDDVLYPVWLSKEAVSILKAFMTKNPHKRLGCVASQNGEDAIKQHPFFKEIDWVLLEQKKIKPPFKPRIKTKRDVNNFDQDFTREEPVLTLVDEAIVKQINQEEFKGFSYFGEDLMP

GSK3β(h) = GSK3β(h) (Homo sapiens, UniProt P49841); conditions: 100 μM
Sequence of GSK3β(h) (P49841 whole entry): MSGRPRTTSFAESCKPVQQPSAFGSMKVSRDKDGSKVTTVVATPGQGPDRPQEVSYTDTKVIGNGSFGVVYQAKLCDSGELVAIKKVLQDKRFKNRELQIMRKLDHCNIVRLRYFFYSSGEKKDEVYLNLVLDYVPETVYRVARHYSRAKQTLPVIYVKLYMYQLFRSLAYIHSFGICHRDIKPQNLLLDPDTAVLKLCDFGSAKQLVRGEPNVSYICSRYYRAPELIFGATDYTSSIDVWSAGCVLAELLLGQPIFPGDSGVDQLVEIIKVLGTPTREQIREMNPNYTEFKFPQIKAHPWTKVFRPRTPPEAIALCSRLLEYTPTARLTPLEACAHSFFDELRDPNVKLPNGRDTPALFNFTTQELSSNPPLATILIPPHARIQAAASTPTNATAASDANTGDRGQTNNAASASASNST

Src(T341M)(h) = Src(T341M)(h) (Homo sapiens, UniProt P12931, T341M); conditions: 100 μM
Pim-2(h) = Pim-2(h) (Homo sapiens, UniProt Q9P1W9); conditions: 100 μM
Sequence of Pim-2(h) (Q9P1W9 whole entry): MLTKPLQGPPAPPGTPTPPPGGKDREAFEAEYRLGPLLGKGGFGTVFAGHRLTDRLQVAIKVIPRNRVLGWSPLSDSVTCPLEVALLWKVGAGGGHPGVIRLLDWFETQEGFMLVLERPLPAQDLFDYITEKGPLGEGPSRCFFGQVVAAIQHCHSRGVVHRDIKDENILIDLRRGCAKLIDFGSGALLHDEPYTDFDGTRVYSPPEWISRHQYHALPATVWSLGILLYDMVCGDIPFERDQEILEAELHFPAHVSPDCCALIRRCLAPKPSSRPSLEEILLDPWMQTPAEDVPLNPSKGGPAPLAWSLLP

Sequence of Flt4(h) (P35916 25-1363): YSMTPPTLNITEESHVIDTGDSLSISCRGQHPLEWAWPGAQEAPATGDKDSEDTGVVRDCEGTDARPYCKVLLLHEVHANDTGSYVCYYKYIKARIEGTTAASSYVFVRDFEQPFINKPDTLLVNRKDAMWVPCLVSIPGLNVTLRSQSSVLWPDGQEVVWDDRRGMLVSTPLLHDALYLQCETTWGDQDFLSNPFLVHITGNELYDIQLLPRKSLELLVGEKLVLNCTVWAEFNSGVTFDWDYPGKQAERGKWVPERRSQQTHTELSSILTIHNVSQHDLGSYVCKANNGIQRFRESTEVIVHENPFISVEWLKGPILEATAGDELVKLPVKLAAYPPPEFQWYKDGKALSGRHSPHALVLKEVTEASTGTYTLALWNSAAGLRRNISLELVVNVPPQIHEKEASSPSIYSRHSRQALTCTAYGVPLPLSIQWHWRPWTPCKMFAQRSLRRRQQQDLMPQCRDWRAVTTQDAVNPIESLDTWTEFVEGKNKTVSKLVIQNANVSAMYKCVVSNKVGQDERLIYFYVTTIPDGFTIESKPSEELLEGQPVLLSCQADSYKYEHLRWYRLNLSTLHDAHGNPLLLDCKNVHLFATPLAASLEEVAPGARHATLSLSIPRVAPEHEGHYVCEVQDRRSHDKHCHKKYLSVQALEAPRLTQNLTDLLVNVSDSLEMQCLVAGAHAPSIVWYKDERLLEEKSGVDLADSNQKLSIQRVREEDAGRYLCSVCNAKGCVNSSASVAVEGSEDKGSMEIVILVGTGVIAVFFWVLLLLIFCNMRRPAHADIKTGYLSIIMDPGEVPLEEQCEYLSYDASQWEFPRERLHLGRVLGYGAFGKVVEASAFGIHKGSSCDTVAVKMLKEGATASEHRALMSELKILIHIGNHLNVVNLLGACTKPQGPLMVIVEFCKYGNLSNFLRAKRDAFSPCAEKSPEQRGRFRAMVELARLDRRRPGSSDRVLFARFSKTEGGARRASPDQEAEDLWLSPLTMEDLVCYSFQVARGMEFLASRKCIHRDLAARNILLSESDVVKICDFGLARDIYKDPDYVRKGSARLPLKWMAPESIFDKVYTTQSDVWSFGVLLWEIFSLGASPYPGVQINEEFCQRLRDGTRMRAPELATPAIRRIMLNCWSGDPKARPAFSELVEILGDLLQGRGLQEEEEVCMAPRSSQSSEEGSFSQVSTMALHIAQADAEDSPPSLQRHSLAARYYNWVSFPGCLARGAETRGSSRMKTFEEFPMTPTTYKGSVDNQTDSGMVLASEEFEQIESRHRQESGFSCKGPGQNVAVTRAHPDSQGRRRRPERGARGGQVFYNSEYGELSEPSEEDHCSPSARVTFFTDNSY

## H-YARAAARQARAKALARQLGVAA-OH [MMI-0100]
cKit(D816H)(h)
  activity at 100 µM: 79%
cKit(V654A)(h)
  activity at 100 µM: 69%
Flt4(h)
  activity at 100 µM: 135%
BrSK2(h)
  activity at 100 µM: 129%

## HRRIKAWLKKIKALARQLGVAA (Mammalian) [MMI-0500]
Pim-1(h)
  % activity: 0%
CaMKI(h)
  % activity: -1%
Aurora-B(h)
  % activity: 5%
cKit(D816H)(h); 100 μM
  % activity: 194%
TBK1(h)
  % activity: 16%
cKit(D816V)(h)
  % activity: 30%
cKit(V654A)(h); 100 μM
  % activity: 223%
PKCϵ(h)
  % activity: 23%
GSK3β(h)
  % activity: 238%
Flt4(h); 100 μM
  % activity: 73%
Src(T341M)(h)
  % activity: 59%
Pim-2(h)
  % activity: 46%
BrSK2(h); 100 μM
  % activity: 84%

## YARAAARQARAKALNRQLGVA (Mammalian) [MMI-0200]
Pim-1(h)
  % activity: 18%
CaMKI(h)
  % activity: 21%
Aurora-B(h)
  % activity: 166%
TBK1(h)
  % activity: 98%
cKit(D816V)(h)
  % activity: 118%
PKCϵ(h)
  % activity: 98%
GSK3β(h)
  % activity: 132%
Src(T341M)(h)
  % activity: 56%
Pim-2(h)
  % activity: 74%
